Drawing on publication PMC9239096, this text covers binding for one sequence.

This series concerns T1, KdpE-MBP (Sinorhizobium fredii CCBAU45436 (SF4)), ORF:2638478e.
T1 sequence: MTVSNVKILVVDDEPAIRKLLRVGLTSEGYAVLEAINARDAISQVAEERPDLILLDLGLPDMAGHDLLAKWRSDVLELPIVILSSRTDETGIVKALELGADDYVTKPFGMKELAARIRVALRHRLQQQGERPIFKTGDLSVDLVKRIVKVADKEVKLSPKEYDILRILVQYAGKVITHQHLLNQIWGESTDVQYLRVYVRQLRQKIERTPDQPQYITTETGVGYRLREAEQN
Put plainly: EMSA. The following applies: 25 mM Tris-HCl pH 8.0, 0.5 mg/mL BSA, 0.1 mg/mL sonicated salmon sperm DNA, 5% glycerol, 0.05% DDM; 10 uL, 20 C, 30 min; 6% native PAGE.

“TCCTCCTGCGCCTCTCTCGAACCTTTATGCGGTTCGGAGCCATATTCCTGACAAGATCCATCCACCGCCGCGCCGAACTCGATCGTCGCGCCGGGATGCGCACATCGATCGCGATCACCTGCCGGGCGGCCCGGCGCTGCCTCCAGGTGACGCGCAGTCAGTAGAAACAACGCACAGGGATTACCGACATGGACATTGTCGTTCTCGCAATAGGCATCGTGTTCTTCGCCTTATCGTTTGCCTATGTCCGGGCGTGCAGCAACCTCTAATCGCGGAGCGGAAAGATG (double strand) [Probe1_kdpF]”: the binding result was “no binding”.
